Reference: publication PMC8599909

Target: T1, PUS7(Δ1-98) (Homo sapiens, UniProt Q96PZ0 99-661, del1-98)
T1 sequence: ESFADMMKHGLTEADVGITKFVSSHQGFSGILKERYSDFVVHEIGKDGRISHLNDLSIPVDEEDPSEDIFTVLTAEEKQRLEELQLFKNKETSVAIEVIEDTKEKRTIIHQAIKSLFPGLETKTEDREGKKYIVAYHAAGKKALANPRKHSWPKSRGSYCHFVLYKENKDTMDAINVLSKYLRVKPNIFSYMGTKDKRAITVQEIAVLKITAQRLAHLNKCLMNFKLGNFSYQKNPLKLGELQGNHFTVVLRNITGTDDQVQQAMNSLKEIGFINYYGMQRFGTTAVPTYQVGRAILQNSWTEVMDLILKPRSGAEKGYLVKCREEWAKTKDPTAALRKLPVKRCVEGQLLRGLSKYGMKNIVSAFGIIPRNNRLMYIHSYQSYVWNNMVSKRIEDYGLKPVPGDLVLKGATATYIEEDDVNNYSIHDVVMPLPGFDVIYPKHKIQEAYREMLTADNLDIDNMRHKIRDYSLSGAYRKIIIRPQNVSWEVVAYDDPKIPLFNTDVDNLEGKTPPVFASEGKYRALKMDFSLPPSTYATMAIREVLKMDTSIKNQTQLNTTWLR
Assay: filter binding

**Q.** Which Kd does the source give for GGGGCCCCAUGGUGUAAUGG (ssRNA) [18mer-cy-tRNAGln] here?
**A.** Its Kd is 267 ± 91 nM.
